Patent publication US20240174727A1, “LONG-ACTING NATRIURETIC PEPTIDES AND USES THEREOF” (Eli Lilly and Company, priority 2022, published 2024)
Numbered stars: 1 amine (or outer) side, 2 acyl side, 3 side chain; on linkers, the order of the positions; unused ones are H or OH. Bridge positions count the residues as written; N and C are the ends. Square brackets hold non-standard residues; d marks the D form. * marks the point of attachment. thioacetal = thioacetal linkage between two cysteines (intrachain bond at the bracketed Cys); C20 diacid = O=C(O)CCCCCCCCCCCCCCCCCCC(=O)*; γGlu = O=C(O)[C@H](CCC(=O)[*:2])N[*:1]; 4Pal = N[C@@H](Cc1ccncc1)C(=O)O; Dap = NC[C@H](N)C(=O)O; AEEA = NCCOCCOCC(=O)O; CH2 = C([*:1])[*:2]

Legend:
rat NPRA [1] = target: T1, rat NPRA (Rattus norvegicus, UniProt P18910); test: Rat NPRA cGMP activity assay (HTRF) in HEK293 cells overexpressing NPRA; assay type: cell-based; conditions: assay buffer with 0.1% casein, read-out: cGMP Assay (EC50, pM) w/Casein rNPRA
T1 construct: Full-Length cDNA Cloning and Generation of Cell Lines Overexpressing Natriuretic Peptide Receptors (NPRs); expressed in transfected cells; host or cells: Jump-in T-Rex HEK293 cells, pJTI R4 CMV-TO MCS pA vector, tetracycline induction
T1 sequence (P18910 29-1057): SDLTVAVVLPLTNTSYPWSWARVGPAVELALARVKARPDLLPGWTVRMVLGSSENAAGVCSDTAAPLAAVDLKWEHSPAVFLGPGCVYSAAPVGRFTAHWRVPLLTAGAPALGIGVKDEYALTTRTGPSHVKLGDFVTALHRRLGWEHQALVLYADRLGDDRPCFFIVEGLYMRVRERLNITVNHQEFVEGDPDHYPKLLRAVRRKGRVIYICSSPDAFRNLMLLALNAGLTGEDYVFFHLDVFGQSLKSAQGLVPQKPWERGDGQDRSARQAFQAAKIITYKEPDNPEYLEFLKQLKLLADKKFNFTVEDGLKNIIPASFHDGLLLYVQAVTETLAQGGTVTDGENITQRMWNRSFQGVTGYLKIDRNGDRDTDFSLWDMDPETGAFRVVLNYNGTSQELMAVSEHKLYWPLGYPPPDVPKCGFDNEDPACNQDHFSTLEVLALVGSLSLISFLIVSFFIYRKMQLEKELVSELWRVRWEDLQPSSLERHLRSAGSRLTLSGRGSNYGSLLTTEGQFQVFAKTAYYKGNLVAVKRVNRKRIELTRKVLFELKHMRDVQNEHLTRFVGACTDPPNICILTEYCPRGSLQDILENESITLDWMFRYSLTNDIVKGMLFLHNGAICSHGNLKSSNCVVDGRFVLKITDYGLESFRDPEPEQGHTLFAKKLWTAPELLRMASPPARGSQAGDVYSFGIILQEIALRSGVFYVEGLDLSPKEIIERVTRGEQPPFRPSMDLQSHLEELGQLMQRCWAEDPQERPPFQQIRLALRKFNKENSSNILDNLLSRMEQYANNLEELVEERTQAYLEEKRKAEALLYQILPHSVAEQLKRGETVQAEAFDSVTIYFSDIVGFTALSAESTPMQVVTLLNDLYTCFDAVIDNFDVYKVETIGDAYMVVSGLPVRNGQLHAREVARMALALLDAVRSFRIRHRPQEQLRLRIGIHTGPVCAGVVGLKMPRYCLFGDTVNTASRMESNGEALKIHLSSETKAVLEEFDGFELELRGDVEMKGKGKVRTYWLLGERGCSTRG
Description: All sequences were verified by full-length sequencing performed by ACGT DNA Sequencing Services (Wheeling, IL). The target cDNA was cloned into pJTI R4 CMV-TO MCS pA vector and then co-transfected with pJT1R4 Int vector into Jump-in™ T-Rex™ HEK293 cells for mammalian inducible expression using Jump-in™ T-Rex™ HEK293 kit and Lipofectamine LTX and Plus Reagent following manufacturer's protocols, as briefly described below.
Jump-in™ T-Rex™ HEK293 cells were plated in a BioCOAT® poly-D-lysine coated 6-well plate (Becton Dickinson, cat no. 354413) at 1 million cells/well in 2 mL culture medium and incubated for 18 h at 37° C. and 5% CO2 to 50-70% confluence. A cDNA mix was made in a 50 mL tube by adding 1.5 μg target cDNA, 1.5 μg pJT1R4 Int vector, 3 μL Plus Reagent, and 300 μL Opti-MEM I sequentially into the tube. A reagent mix was made in a separate 50 mL tube by adding 7.5 μL Lipofectamine LTX into 300 μL Opti-MEM I. The mixtures were incubated for 5 min at room temperature. The cDNA mix was then transferred into the reagent mix, mixed well, and incubated for additional 30 min at room temperature. A 500 μL of cDNA/Lipofectamine complex was then transferred to the wells of the cell plate in which the culture medium was changed to 2 mL of transfection medium containing DMEM with 4.5 g/L D-glucose supplemented with 10% FBS-HI and 20 mM HEPES. Transfected cells were cultured for 48 h in an incubator at 37° C. and 5% CO2. A subclone or pool from each overexpressing cell line was maintained in culture medium with the addition of 2 mg/mL G418 sulfate for the clone selection based on its built-in resistance to G418 sulfate for at least 3 weeks with medium changed every 2-3 days.
NPRs were overexpressed in T-Rex™ HEK293 cells following the induction with 300 ng/mL tetracycline in culture medium for 48 h. Induced cell lines in an exponential growth phase were treated with 0.05% trypsin-EDTA for a few seconds at room temperature, harvested in cell medium containing FBS to neutralize the trypsin, counted, and cryopreserved at the density of 2 million cells/mL in cell preservation solution containing FBS-HI with 5% DMSO. Cryopreserved cells were stored at −80° C. for a few days prior to transferring to a liquid nitrogen tank. Induced cell lines were then used for suspension assays to measure the activity of polypeptides to stimulate cGMP production in cGMP assays or for the preparation of cell membranes to measure the binding activity of polypeptides in competitive radioligand binding assays, as described below.
Test polypeptides were added starting at 10 μM concentration and at 10-fold decreasing concentrations to obtain 8-point concentration-response curves (i.e., 10 μM to 1 pM). The quantity of cGMP generated was detected using HTRF® technology and normalized to maximum amount produced by 100 nM amidated rat ANP and the minimum amount produced by assay buffer. Detailed steps are outlined below.
Stock solutions of test polypeptides (2 mM) dissolved in DMSO were first diluted 100-fold in assay buffer containing HBSS with Ca^2+ and Mg^2+, 5 mM HEPES, 0.5 mM IBMX, and 0.1% BSA or 0.1% casein (pH 7.4). The polypeptides were further serially diluted in 1:10 dilution steps in assay buffer containing 0.1% BSA or 0.1% casein to generate 8-point 2× working stock solutions ranging from 20 μM to […].
A 10 μL cell suspension containing 4000 cells was plated in Costar® half-area white opaque 96-well plates (Corning, cat no. 3693). Then 10 μL of assay buffer (basal activity), 200 nM of amidated rat ANP (maximum activity) or 2× working stock solutions of test polypeptides were transferred into the plate. Final concentration of DMSO in each well was 0.5%. The plate was shaken for 15 sec and then incubated for 40 min at room temperature.
The cGMP generated was measured using cGMP kit following the manufacturer's directions, as described below.

human NPRA = target: T2, human NPRA (human, UniProt P16066 33-1061); test: cell-based or functional assay
T2 sequence (looked up): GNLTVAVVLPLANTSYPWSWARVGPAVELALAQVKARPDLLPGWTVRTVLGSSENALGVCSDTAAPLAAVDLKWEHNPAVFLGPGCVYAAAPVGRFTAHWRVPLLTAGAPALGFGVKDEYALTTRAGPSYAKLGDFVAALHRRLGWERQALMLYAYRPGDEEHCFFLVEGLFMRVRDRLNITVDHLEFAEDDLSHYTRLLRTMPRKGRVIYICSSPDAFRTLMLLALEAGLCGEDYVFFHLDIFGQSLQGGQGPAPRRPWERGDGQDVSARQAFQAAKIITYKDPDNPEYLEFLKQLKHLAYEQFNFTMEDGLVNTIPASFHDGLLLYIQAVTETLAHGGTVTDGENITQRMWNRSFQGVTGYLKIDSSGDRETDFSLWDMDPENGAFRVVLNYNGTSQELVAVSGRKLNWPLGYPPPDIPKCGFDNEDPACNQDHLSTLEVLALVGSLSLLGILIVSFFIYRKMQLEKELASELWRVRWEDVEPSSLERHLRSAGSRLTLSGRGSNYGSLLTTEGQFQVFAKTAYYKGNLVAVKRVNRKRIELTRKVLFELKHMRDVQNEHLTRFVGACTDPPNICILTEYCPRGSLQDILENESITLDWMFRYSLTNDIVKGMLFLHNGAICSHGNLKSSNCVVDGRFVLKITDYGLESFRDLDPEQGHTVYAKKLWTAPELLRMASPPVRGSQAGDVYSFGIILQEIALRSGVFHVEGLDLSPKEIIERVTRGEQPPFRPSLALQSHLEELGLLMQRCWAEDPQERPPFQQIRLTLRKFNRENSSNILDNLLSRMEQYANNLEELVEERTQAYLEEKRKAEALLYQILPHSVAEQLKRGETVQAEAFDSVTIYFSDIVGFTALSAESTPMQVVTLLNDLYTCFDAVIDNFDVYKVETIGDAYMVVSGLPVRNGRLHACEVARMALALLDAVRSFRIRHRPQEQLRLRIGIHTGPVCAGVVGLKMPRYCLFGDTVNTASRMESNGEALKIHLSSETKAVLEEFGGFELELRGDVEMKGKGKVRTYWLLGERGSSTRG

rat NPRA [2] = target: T3, rat NPRA (rat, UniProt P18910 29-1057); test: cell-based or functional assay
T3 sequence (looked up): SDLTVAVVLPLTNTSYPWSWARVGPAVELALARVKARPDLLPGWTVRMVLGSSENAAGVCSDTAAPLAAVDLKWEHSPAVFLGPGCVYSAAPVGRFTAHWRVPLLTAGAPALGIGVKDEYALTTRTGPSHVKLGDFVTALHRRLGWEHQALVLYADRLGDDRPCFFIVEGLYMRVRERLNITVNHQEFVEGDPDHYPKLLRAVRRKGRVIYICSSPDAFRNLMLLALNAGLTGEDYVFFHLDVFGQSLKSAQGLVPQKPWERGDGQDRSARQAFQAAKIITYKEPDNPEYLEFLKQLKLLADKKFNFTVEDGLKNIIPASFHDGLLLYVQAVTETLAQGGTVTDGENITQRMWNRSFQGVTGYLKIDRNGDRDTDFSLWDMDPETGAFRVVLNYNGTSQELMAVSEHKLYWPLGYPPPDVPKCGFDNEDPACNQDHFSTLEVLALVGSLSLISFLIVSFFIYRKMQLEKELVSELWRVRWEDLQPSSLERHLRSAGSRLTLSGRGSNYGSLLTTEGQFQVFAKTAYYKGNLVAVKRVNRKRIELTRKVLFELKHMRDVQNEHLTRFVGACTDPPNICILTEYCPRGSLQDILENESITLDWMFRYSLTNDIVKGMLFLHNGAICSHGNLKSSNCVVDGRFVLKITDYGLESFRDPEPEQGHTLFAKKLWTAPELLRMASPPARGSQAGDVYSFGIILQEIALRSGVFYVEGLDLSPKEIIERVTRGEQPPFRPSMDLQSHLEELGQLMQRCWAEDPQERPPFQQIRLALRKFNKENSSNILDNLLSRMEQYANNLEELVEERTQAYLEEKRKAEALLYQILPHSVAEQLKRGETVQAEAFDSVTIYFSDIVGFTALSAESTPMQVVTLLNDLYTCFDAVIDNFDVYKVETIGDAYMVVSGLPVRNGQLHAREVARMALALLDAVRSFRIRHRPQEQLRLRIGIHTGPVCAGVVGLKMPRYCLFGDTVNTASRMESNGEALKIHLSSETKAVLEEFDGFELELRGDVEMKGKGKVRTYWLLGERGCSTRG

Row | Molecule | EC50 (rat NPRA [1]) | cGMP Assay (EC50, pM) w/BSA, hNPRA (human NPRA) | cGMP Assay (EC50, pM) w/Casein, hNPRA (human NPRA) | cGMP Assay (EC50, pM) w/BSA, rNPRA (rat NPRA [2]) | cGMP Assay (EC50, pM) w/Casein, rNPRA (rat NPRA [2])
1 | {C20 diacid-γGlu}-EKEKEKG[AEEA][AEEA][AEEA][AEEA]S[4Pal]RRSSCFGGRIDRIGHQSGLGCPSFRHGGKSSGAPPPS-NH2 (linker 18-34 via CH2) [Example 83] | 16700 pM | – | – | – | –
2 | {C20 diacid-γGlu}-EKEKEKGEKPRSSCFGG[Dap]IDRIGHQSGLGCPSFRHGSPSSGAPPPS-NH2 (bridge 14-30 via thioacetal) [HOOC-(CH2)18-CO-(γGlu)-EKEKEKGEKPRSS[CFGG-Dap-IDRIGHQSGLGC]PSFRHGSPSSGAPPPS-NH2] | – | 2.87e+06 pM | 19700 pM | 1.73e+06 pM | 200000 pM
3 | {C20 diacid-γGlu}-EKEKEKGEKPRSSCFGKRIDRIGRYSGLGCPSFRHGSPSSGAPPPS-NH2 (bridge 14-30 via thioacetal) [HOOC-(CH2)18-CO-(γGlu)-EKEKEKGEKPRSS[CFGKRIDRIGRYSGLGC]PSFRHGSPSSGAPPPS-NH2] | – | 11700 pM | 692 pM | 4.18e+06 pM | 41100 pM
